Source: the supplement of paper PMC9112550, “Optimization of the antimicrobial peptide Bac7 by deep mutational scanning” (BMC Biology, 2022)

Tested on: Escherichia coli TOP10
Experiment: shrunken log2 fold change of peptide-encoding DNA abundance (4.5 h post-induction vs induction); higher = less antimicrobial activity (less host growth inhibition)
Settings: time post-induction: 4.5 h; library: site-saturation at positions 5, 18, 19, 20
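Also: peptides expressed intracellularly from a pBAD plasmid library in pooled LB shake-flask culture, induced with 0.3% L-arabinose, DNA abundance read by NGS, three biological replicates, DESeq2 with apeglm shrinkage.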

Sequence	shrunken log2 fold change
RRIRIRPPRLPRPRPRPLQHPRP	-0.121
RRIRMRPPRLPRPRPRPSHNPRP	-0.194
RRIRNRPPRLPRPRPRPPCQPRP	-0.294
RRIRLRPPRLPRPRPRPSPWPRP	-0.149
RRIRIRPPRLPRPRPRPGPNPRP	-0.113
RRIRPRPPRLPRPRPRPFFSPRP	-0.0993
RRIRKRPPRLPRPRPRPLAPPRP	0.65
RRIRYRPPRLPRPRPRPYSKPRP	-0.124
RRIRPRPPRLPRPRPRPRRYPRP	-0.0175
RRIRGRPPRLPRPRPRPRLGPRP	0.799
RRIRDRPPRLPRPRPRPTVAPRP	1.14
RRIRIRPPRLPRPRPRPISQPRP	-0.961
RRIRRRPPRLPRPRPRPKERPRP	-0.327
RRIRRRPPRLPRPRPRPKCIPRP	-0.019
RRIRERPPRLPRPRPRPKWYPRP	-0.175
RRIRFRPPRLPRPRPRPSMCPRP	-0.714
RRIRHRPPRLPRPRPRPSSPPRP	-0.316
RRIRVRPPRLPRPRPRPQVKPRP	-0.016
RRIRQRPPRLPRPRPRPFWQPRP	0.213
RRIRDRPPRLPRPRPRPCWWPRP	0.249
RRIRVRPPRLPRPRPRPQCQPRP	0.148
RRIRARPPRLPRPRPRPEVPPRP	0.162
RRIRMRPPRLPRPRPRPYGVPRP	-0.147
RRIRYRPPRLPRPRPRPAGPPRP	-0.0366
RRIRPRPPRLPRPRPRPHAAPRP	0.3

Sequence	shrunken log2 fold change
RRIRIRPPRLPRPRPRPVEEPRP	-0.0729
RRIRMRPPRLPRPRPRPTWCPRP	-0.0681
RRIRRRPPRLPRPRPRPIKNPRP	0.278
RRIRSRPPRLPRPRPRPAAMPRP	0.852
RRIRDRPPRLPRPRPRPHMPPRP	0.0902
RRIRMRPPRLPRPRPRPFWAPRP	0.509
RRIRCRPPRLPRPRPRPRATPRP	0.509
RRIRERPPRLPRPRPRPHCWPRP	-0.0487
RRIRRRPPRLPRPRPRPFCDPRP	-0.0358
RRIRSRPPRLPRPRPRPYSGPRP	-0.328
RRIRFRPPRLPRPRPRPSPHPRP	0.0339
RRIRQRPPRLPRPRPRPVFMPRP	-0.155
RRIRRRPPRLPRPRPRPFYLPRP	-0.226
RRIRGRPPRLPRPRPRPCQEPRP	0.0738
RRIRSRPPRLPRPRPRPLETPRP	-0.122
RRIRDRPPRLPRPRPRPFIEPRP	0.0849
RRIRSRPPRLPRPRPRPVIIPRP	-0.254
RRIRERPPRLPRPRPRPVYRPRP	-0.514
RRIRPRPPRLPRPRPRPPSAPRP	1.05
RRIRARPPRLPRPRPRPWPKPRP	0.508
RRIRIRPPRLPRPRPRPMMLPRP	-0.0496
RRIRERPPRLPRPRPRPHMFPRP	-0.749
RRIRKRPPRLPRPRPRPKALPRP	1.8
RRIRVRPPRLPRPRPRPYWMPRP	-0.227
RRIRPRPPRLPRPRPRPLIEPRP	-0.0879

Sequence	shrunken log2 fold change
RRIRVRPPRLPRPRPRPFAMPRP	-0.252
RRIRKRPPRLPRPRPRPMWTPRP	0.151
RRIRVRPPRLPRPRPRPCNGPRP	0.00489
RRIRMRPPRLPRPRPRPSDSPRP	0.0495
RRIRIRPPRLPRPRPRPDSLPRP	-0.163
RRIRYRPPRLPRPRPRPQGTPRP	0.034
RRIRMRPPRLPRPRPRPSLQPRP	0.385
RRIRMRPPRLPRPRPRPLYLPRP	-0.327
RRIRNRPPRLPRPRPRPGCRPRP	0.123
RRIRCRPPRLPRPRPRPAFRPRP	0.25
RRIRMRPPRLPRPRPRPVVLPRP	0.272
RRIRHRPPRLPRPRPRPFRMPRP	-0.625
RRIRSRPPRLPRPRPRPRPDPRP	0.218
RRIRNRPPRLPRPRPRPKMMPRP	-0.249
RRIRWRPPRLPRPRPRPNNDPRP	-0.213
RRIRCRPPRLPRPRPRPQEFPRP	-0.366
RRIRLRPPRLPRPRPRPSSHPRP	-0.196
RRIRNRPPRLPRPRPRPARKPRP	0.0797
RRIRLRPPRLPRPRPRPLKVPRP	-0.0503
RRIRCRPPRLPRPRPRPHSMPRP	-0.718
RRIRLRPPRLPRPRPRPCEEPRP	-0.0266
RRIRERPPRLPRPRPRPPPWPRP	0.318
RRIRIRPPRLPRPRPRPGNVPRP	-0.0399
RRIRHRPPRLPRPRPRPHDKPRP	-0.293
RRIRRRPPRLPRPRPRPSEMPRP	0.0772

Sequence	shrunken log2 fold change
RRIRCRPPRLPRPRPRPEGDPRP	0.193
RRIRIRPPRLPRPRPRPFAQPRP	-0.108
RRIRPRPPRLPRPRPRPPLFPRP	0.36
RRIRPRPPRLPRPRPRPSTHPRP	-0.203
RRIRGRPPRLPRPRPRPALVPRP	1.02
RRIRPRPPRLPRPRPRPCGWPRP	0.403
RRIRIRPPRLPRPRPRPRESPRP	0.133
RRIRDRPPRLPRPRPRPEVMPRP	0.152
RRIRQRPPRLPRPRPRPICFPRP	-0.0372
RRIRTRPPRLPRPRPRPQECPRP	-0.0262
RRIRPRPPRLPRPRPRPDKEPRP	-0.0375
RRIRGRPPRLPRPRPRPLDRPRP	0.732
RRIRWRPPRLPRPRPRPFNQPRP	-0.494
RRIRGRPPRLPRPRPRPAQHPRP	0.378
RRIRIRPPRLPRPRPRPQCLPRP	-0.47
RRIRFRPPRLPRPRPRPLGAPRP	0.312
RRIRARPPRLPRPRPRPRYKPRP	0.0679
RRIRVRPPRLPRPRPRPYHCPRP	-0.157
RRIRCRPPRLPRPRPRPMFRPRP	-0.179
RRIRMRPPRLPRPRPRPWLVPRP	0.0862
RRIRHRPPRLPRPRPRPCRIPRP	-0.0589
RRIRHRPPRLPRPRPRPFSPPRP	0.0457
RRIRLRPPRLPRPRPRPGEHPRP	-0.145
RRIRWRPPRLPRPRPRPELFPRP	-0.0123
RRIRARPPRLPRPRPRPQFLPRP	-0.265

Sequence	shrunken log2 fold change
RRIRTRPPRLPRPRPRPSNTPRP	-0.732
RRIRARPPRLPRPRPRPLVSPRP	0.653
RRIRGRPPRLPRPRPRPQNKPRP	0.0435
RRIRKRPPRLPRPRPRPSPHPRP	-0.0333
RRIRPRPPRLPRPRPRPPCRPRP	0.339
RRIRHRPPRLPRPRPRPVQEPRP	-0.0785
RRIRCRPPRLPRPRPRPERPPRP	0.777
RRIRVRPPRLPRPRPRPRHMPRP	0.152
RRIRKRPPRLPRPRPRPLIHPRP	1.09
RRIRIRPPRLPRPRPRPPQRPRP	0.27
RRIRMRPPRLPRPRPRPRTHPRP	0.28
RRIRLRPPRLPRPRPRPDWSPRP	-0.124
RRIRPRPPRLPRPRPRPGMDPRP	-0.00631
RRIRTRPPRLPRPRPRPVCYPRP	-0.531
RRIRNRPPRLPRPRPRPDLQPRP	-0.0156
RRIRWRPPRLPRPRPRPWDPPRP	-0.101
RRIRWRPPRLPRPRPRPLWSPRP	-0.13
RRIRVRPPRLPRPRPRPNHWPRP	0.203
RRIRYRPPRLPRPRPRPHNAPRP	-1.21
RRIRIRPPRLPRPRPRPPERPRP	0.324
RRIRRRPPRLPRPRPRPTAAPRP	1.21
RRIRPRPPRLPRPRPRPQPCPRP	-0.0627
RRIRQRPPRLPRPRPRPERIPRP	-0.328
RRIRMRPPRLPRPRPRPSHRPRP	0.254
RRIRFRPPRLPRPRPRPHTSPRP	-0.907
